Results as given in paper PMC13174313 (bioRxiv, 2026).

T1: D. melanogaster dynein light chain Tctex1 (D. melanogaster, UniProt Q94524 1-111)
T1 sequence: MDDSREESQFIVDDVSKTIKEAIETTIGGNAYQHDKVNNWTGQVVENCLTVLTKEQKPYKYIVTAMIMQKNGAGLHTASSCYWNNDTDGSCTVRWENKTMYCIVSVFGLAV


Experiments:
Assay in all cases: ITC
[1] = molecular target: TII: Tctex1 homodimer with two IC chains bound (D. melanogaster) (UniProt Q94524)
[2] = molecular target: T1, D. melanogaster dynein light chain …
[3] = molecular target: D. melanogaster dynein light chain LC8 (D. melanogaster, UniProt Q24117 1-89)
Chain of D. melanogaster dynein light chain LC8 (D. melanogaster, UniProt Q24117 1-89) (Q24117 whole entry): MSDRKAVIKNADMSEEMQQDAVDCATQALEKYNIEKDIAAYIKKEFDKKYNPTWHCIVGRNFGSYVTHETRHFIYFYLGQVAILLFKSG

Chain of D. melanogaster dynein light chain LC8 (from UniProt Q24117 1-89) (natural protein) (Q24117 whole entry): as above

dH (TII -> TIILII) [1] [kcal/mol] | dH, first IC on the Tctex1 dimer (TI) [2] [kcal/mol] | dH, second IC on the Tctex1 dimer (TI to TII) [2] [kcal/mol] | dH, first IC on the LC8 dimer (LI) [3] [kcal/mol] | dH, second IC on the LC8 dimer (LI to LII) [3] [kcal/mol] | Molecule
-25.8 | – | – | – | – | D. melanogaster dynein light chain LC8 (from UniProt Q24117 1-89) (natural protein)
– | -6.76 | -4.97 | -14.8 | -15.1 | D. melanogaster dynein intermediate chain ICTL (domain or fragment, UniProt Q24246 84-143, looked up) SNTQTPDASLQATVNGQSGGKKQPLNLSVYNVQATNIPPKETLVYTKQTQTTSTGGGNGD
